# Experiments:
# WT JR-FL gp120 (HIV-1) = experiment: ELISA, antigen-coated wells
# [1] = molecular target: HIV-1 Env of isolate MGRM-C-004 (HIV-1); experiment: cell-based or functional assay
# [2] = molecular target: HIV-1 Env of pseudovirus isolate MGRM-G-001 (HIV-1); experiment: cell-based or functional assay
# [3] = molecular target: HIV-1 Env of isolate MGRM-C-007 (HIV-1); experiment: cell-based or functional assay
# [4] = molecular target: HIV-1 Env of isolate MGRM-C-012 (HIV-1); experiment: cell-based or functional assay
# [5] = molecular target: HIV-1 Env of isolate MGRM-C-005 (HIV-1); experiment: cell-based or functional assay
# [6] = molecular target: HIV-1 92TH021 Env (pseudovirus) (HIV-1); experiment: cell-based or functional assay
# [7] = molecular target: HIV-1 Env of isolate MGRM-C-022 (HIV-1); experiment: cell-based or functional assay
# [8] = molecular target: envelope of aMLV pseudovirus (negative control); experiment: cell-based or functional assay
# [9] = molecular target: HIV-1 94UG103 Env (pseudovirus) (HIV-1); experiment: cell-based or functional assay
# [10] = molecular target: HIV-1 MGRM-A-010 Env (pseudovirus) (HIV-1); experiment: cell-based or functional assay
# [11] = molecular target: HIV-1 NL43 Env (pseudovirus) (HIV-1); experiment: cell-based or functional assay
# [12] = molecular target: HIV-1 Env of pseudovirus isolate MGRM-G-009 (HIV-1); experiment: cell-based or functional assay
# [13] = molecular target: HIV-1 Env of isolate MGRM-C-006 (HIV-1); experiment: cell-based or functional assay
# [14] = molecular target: HIV-1 Env of isolate MGRM-C-009 (HIV-1); experiment: cell-based or functional assay
# [15] = molecular target: HIV-1 Env of isolate MGRM-C-019 (HIV-1); experiment: cell-based or functional assay
# [16] = molecular target: HIV-1 Env of isolate MGRM-C-020 (HIV-1); experiment: cell-based or functional assay
# [17] = molecular target: HIV-1 92UG005 Env (pseudovirus) (HIV-1); experiment: cell-based or functional assay
# [18] = molecular target: HIV-1 Env of pseudovirus isolate MGRM-G-027 (HIV-1); experiment: cell-based or functional assay
# [19] = molecular target: HIV-1 Env of pseudovirus isolate MGRM-G-011 (HIV-1); experiment: cell-based or functional assay
# [20] = molecular target: HIV-1 Env of pseudovirus isolate MGRM-G-016 (HIV-1); experiment: cell-based or functional assay
# [21] = molecular target: HIV-1 Env of isolate MGRM-C-014 (HIV-1); experiment: cell-based or functional assay
# [22] = molecular target: HIV-1 Env of isolate MGRM-C-013 (HIV-1); experiment: cell-based or functional assay
# [23] = molecular target: HIV-1 Env of isolate MGRM-C-015 (HIV-1); experiment: cell-based or functional assay
# [24] = molecular target: HIV-1 Env of isolate MGRM-C-002 (HIV-1); experiment: cell-based or functional assay
# [25] = molecular target: HIV-1 92RW020 Env (pseudovirus) (HIV-1); experiment: cell-based or functional assay
# [26] = molecular target: HIV-1 MGRM-C-027 Env (pseudovirus) (HIV-1); experiment: cell-based or functional assay
# [27] = molecular target: HIV-1 JRCSF Env (pseudovirus) (HIV-1) (UniProt P20871); experiment: cell-based or functional assay
# [28] = molecular target: HIV-1 Env of isolate MGRM-C-023 (HIV-1); experiment: cell-based or functional assay
# [29] = molecular target: HIV-1 Env of pseudovirus isolate MGRM-G-006 (HIV-1); experiment: cell-based or functional assay
# [30] = molecular target: HIV-1 93IN905 Env (pseudovirus) (HIV-1); experiment: cell-based or functional assay
# [31] = molecular target: HIV-1 APV6 Env (pseudovirus) (HIV-1); experiment: cell-based or functional assay
# [32] = molecular target: HIV-1 Env of isolate MGRM-C-008 (HIV-1); experiment: cell-based or functional assay
# [33] = molecular target: HIV-1 Env of pseudovirus isolate MGRM-G-014 (HIV-1); experiment: cell-based or functional assay
# [34] = molecular target: HIV-1 Env of pseudovirus isolate MGRM-G-015 (HIV-1); experiment: cell-based or functional assay
# [35] = molecular target: HIV-1 MGRM-D-018 Env (pseudovirus) (HIV-1); experiment: cell-based or functional assay
# [36] = molecular target: HIV-1 Env of pseudovirus isolate MGRM-G-013 (HIV-1); experiment: cell-based or functional assay
# [37] = molecular target: HIV-1 Env of isolate MGRM-C-024 (HIV-1); experiment: cell-based or functional assay
# [38] = molecular target: HIV-1 Env of pseudovirus isolate MGRM-G-004 (HIV-1); experiment: cell-based or functional assay
# [39] = molecular target: HIV-1 Env of isolate MGRM-C-001 (HIV-1); experiment: cell-based or functional assay
# [40] = molecular target: HIV-1 CMU02 Env (pseudovirus) (HIV-1); experiment: cell-based or functional assay
# [41] = molecular target: HIV-1 Env of pseudovirus isolate MGRM-G-017 (HIV-1); experiment: cell-based or functional assay
# [42] = molecular target: HIV-1 92UG024 Env (pseudovirus) (HIV-1); experiment: cell-based or functional assay
# [43] = molecular target: HIV-1 Env of isolate MGRM-C-010 (HIV-1); experiment: cell-based or functional assay
# [44] = molecular target: HIV-1 Env of isolate MGRM-C-025 (HIV-1); experiment: cell-based or functional assay
# [45] = molecular target: HIV-1 MGRM-C-028 Env (pseudovirus) (HIV-1); experiment: cell-based or functional assay
# [46] = molecular target: HIV-1 Env of isolate MGRM-C-017 (HIV-1); experiment: cell-based or functional assay
# [47] = molecular target: HIV-1 MGRM-C-026 Env (pseudovirus) (HIV-1); experiment: cell-based or functional assay
# [48] = molecular target: HIV-1 Env of pseudovirus isolate MGRM-G-019 (HIV-1); experiment: cell-based or functional assay
substance,measurement,setting,value
4858_P08 (PGT-123) (antibody),EC50,WT JR-FL gp120 (HIV-1),0.2 µg/mL
same,neutralization IC50,[1],0.009 µg/mL
same,"IC50 (µg/mL), pseudovirus neutralization",[2],0.009 µg/mL
same,neutralization IC50,[3],0.547 µg/mL
same,neutralization IC50,[4],0.606 µg/mL
same,neutralization IC50,[5],0.012 µg/mL
same,neutralization IC50 (pseudovirus),[6],> 10 µg/mL
same,neutralization IC50,[7],0.01 µg/mL
same,"IC50 (µg/mL), pseudovirus neutralization",[8],> 50 µg/mL
same,neutralization IC50 (pseudovirus),[9],0.846 µg/mL
same,neutralization IC50 (pseudovirus),[10],0.492 µg/mL
same,neutralization IC50 (pseudovirus),[11],> 10 µg/mL
same,"IC50 (µg/mL), pseudovirus neutralization",[12],33.5 µg/mL
same,neutralization IC50,[13],0.021 µg/mL
same,neutralization IC50,[14],> 50 µg/mL
same,neutralization IC50,[15],> 50 µg/mL
same,neutralization IC50,[16],> 50 µg/mL
same,neutralization IC50 (pseudovirus),[17],2.49 µg/mL
same,"IC50 (µg/mL), pseudovirus neutralization",[18],0.182 µg/mL
same,"IC50 (µg/mL), pseudovirus neutralization",[19],14.9 µg/mL
same,"IC50 (µg/mL), pseudovirus neutralization",[20],> 50 µg/mL
same,neutralization IC50,[21],1 µg/mL
same,neutralization IC50,[22],14.9 µg/mL
same,neutralization IC50,[23],13.1 µg/mL
same,neutralization IC50,[24],0.01 µg/mL
same,neutralization IC50 (pseudovirus),[25],0.0038 µg/mL
same,neutralization IC50 (pseudovirus),[26],0.0169 µg/mL
same,neutralization IC50 (pseudovirus),[27],0.0423 µg/mL
same,neutralization IC50,[28],0.011 µg/mL
same,"IC50 (µg/mL), pseudovirus neutralization",[29],> 50 µg/mL
same,neutralization IC50 (pseudovirus),[30],0.0071 µg/mL
same,neutralization IC50 (pseudovirus),[31],0.0328 µg/mL
same,neutralization IC50,[32],0.011 µg/mL
same,"IC50 (µg/mL), pseudovirus neutralization",[33],0.005 µg/mL
same,"IC50 (µg/mL), pseudovirus neutralization",[34],> 50 µg/mL
same,neutralization IC50 (pseudovirus),[35],0.0047 µg/mL
same,"IC50 (µg/mL), pseudovirus neutralization",[36],3.97 µg/mL
same,neutralization IC50,[37],0.195 µg/mL
same,"IC50 (µg/mL), pseudovirus neutralization",[38],0.181 µg/mL
same,neutralization IC50,[39],42.4 µg/mL
same,neutralization IC50 (pseudovirus),[40],> 10 µg/mL
same,"IC50 (µg/mL), pseudovirus neutralization",[41],0.026 µg/mL
same,neutralization IC50 (pseudovirus),[42],> 10 µg/mL
same,neutralization IC50,[43],> 50 µg/mL
same,neutralization IC50,[44],13.3 µg/mL
same,neutralization IC50 (pseudovirus),[45],0.443 µg/mL
same,neutralization IC50,[46],0.01 µg/mL
same,neutralization IC50 (pseudovirus),[47],0.0031 µg/mL
same,"IC50 (µg/mL), pseudovirus neutralization",[48],0.008 µg/mL
4877_D15 (PGT-122) (antibody),EC50,WT JR-FL gp120 (HIV-1),0.3 µg/mL
same,neutralization IC50,[1],0.02 µg/mL
same,"IC50 (µg/mL), pseudovirus neutralization",[2],0.005 µg/mL
same,neutralization IC50,[3],3.35 µg/mL
same,neutralization IC50,[4],2 µg/mL
same,neutralization IC50,[5],0.027 µg/mL
same,neutralization IC50 (pseudovirus),[6],> 10 µg/mL
same,neutralization IC50,[7],0.012 µg/mL
same,"IC50 (µg/mL), pseudovirus neutralization",[8],> 50 µg/mL
same,neutralization IC50 (pseudovirus),[9],1.46 µg/mL
same,neutralization IC50 (pseudovirus),[10],1.68 µg/mL
same,neutralization IC50 (pseudovirus),[11],> 10 µg/mL
same,"IC50 (µg/mL), pseudovirus neutralization",[12],0.514 µg/mL
same,neutralization IC50,[13],0.018 µg/mL
same,neutralization IC50,[14],> 50 µg/mL
same,neutralization IC50,[15],> 50 µg/mL
same,neutralization IC50,[16],14 µg/mL
same,neutralization IC50 (pseudovirus),[17],> 10 µg/mL
same,"IC50 (µg/mL), pseudovirus neutralization",[18],0.606 µg/mL
same,"IC50 (µg/mL), pseudovirus neutralization",[19],31.3 µg/mL
same,"IC50 (µg/mL), pseudovirus neutralization",[20],> 50 µg/mL
same,neutralization IC50,[21],> 50 µg/mL
same,neutralization IC50,[22],32.6 µg/mL
same,neutralization IC50,[23],> 50 µg/mL
same,neutralization IC50,[24],0.022 µg/mL
same,neutralization IC50 (pseudovirus),[25],0.0072 µg/mL
same,neutralization IC50 (pseudovirus),[26],0.0388 µg/mL
same,neutralization IC50 (pseudovirus),[27],0.0727 µg/mL
same,neutralization IC50,[28],0.027 µg/mL
same,"IC50 (µg/mL), pseudovirus neutralization",[29],> 50 µg/mL
same,neutralization IC50 (pseudovirus),[30],0.0138 µg/mL
same,neutralization IC50 (pseudovirus),[31],0.0851 µg/mL
same,neutralization IC50,[32],0.028 µg/mL
same,"IC50 (µg/mL), pseudovirus neutralization",[33],0.008 µg/mL
same,"IC50 (µg/mL), pseudovirus neutralization",[34],> 50 µg/mL
same,neutralization IC50 (pseudovirus),[35],0.0115 µg/mL
same,"IC50 (µg/mL), pseudovirus neutralization",[36],3.45 µg/mL
same,neutralization IC50,[37],0.102 µg/mL
same,"IC50 (µg/mL), pseudovirus neutralization",[38],2.15 µg/mL
same,neutralization IC50,[39],19.1 µg/mL
same,neutralization IC50 (pseudovirus),[40],> 10 µg/mL
same,"IC50 (µg/mL), pseudovirus neutralization",[41],0.032 µg/mL
same,neutralization IC50 (pseudovirus),[42],> 10 µg/mL
same,neutralization IC50,[43],> 50 µg/mL
same,neutralization IC50,[44],8.69 µg/mL
same,neutralization IC50 (pseudovirus),[45],2.06 µg/mL
same,neutralization IC50,[46],0.015 µg/mL
same,neutralization IC50 (pseudovirus),[47],0.0089 µg/mL
same,"IC50 (µg/mL), pseudovirus neutralization",[48],0.016 µg/mL

# Reference: patent US20250320281A1
